B1: S. pombe Csm1 C-terminal globular domain (residues 125–261), wild type [S. pombe] / Sp Mis13 5–17 peptide (Dsn1-N/Box 1), fluorescein isothiocyanate-labelled [modified: fluorescein isothiocyanate-labelled at its N-terminus; fluorescein … (parent complex)
chain 1: NAGADADDTIVKDLKKELENEKKANHSLKNELLKTREQIKNYSKINILIKELFGLEVADCIEDEDGYRFNCKNTGRRGTLEYQLLLDDQNFTFTPRLNVQTDEELMKHLPDYLLEEIIFTKEQGKLFSARLMKALQD
chain 2: PEEQEGFVFVRKG

Variants of: B1
Experiment: fluorescence polarisation; point at 250 µM protein (highest concentration shown); parent: 140; read off a plot

Row | Variant | response
1 | chain 1 I117D | ~73 mP

Source: PMC6823300, “The molecular basis of monopolin recruitment to the kinetochore” (Chromosoma, 2019)
